Patent US20150266969A1

Target: E200 peptide
Assay: Biacore, PEP2-Fc on E200

| Binder | Kd |
| --- | --- |
| PEP2-2-2 Fc (Fc fusion, not shown: a dimerising Fc or GST) EVQLLESGGGLVQPGGSLRLSCAASGFTFRNHDMGWVRQAPGKGLEWVSAISGSGGSTYYADSVKGRFTISRDNSKNTLYLQMNSLRAEDTAVYYCAEPKPMDTEFDYRSQGTLVTVSS | 0.1 nM |
| PEP2-47 Fc (Fc fusion, not shown: a dimerising Fc or GST) EVQLLESGGGLVQPGGSLRLSCAASGFTFPMKDMGWVRQAPGKGLEWVSAISGSGGSTYYADSVKGRFTISRDNSKNTLYLQMNSLRAEDTAVYYCAEPSHFDRPFDYWGQGTLVTVSS | 7.5 nM |
| PEP2-247-2 Fc (Fc fusion, not shown: a dimerising Fc or GST) EVQLLESGGGLVQPGGSLRLSCAASGFTFRNHDMGWVRQAPGKGLEWVSAISGSGGSTYYANSVKGRFTISRDNSKNTLYLQMNSLRAEDTAVYYCAEPSHFDRPFDYRSQGTLVTVSS | 0.45 nM |
| PEP2-247-1 Fc (Fc fusion, not shown: a dimerising Fc or GST) EVQLLESGGGLVQPGGSLRLSCAASGFTFRNHDMGWVRQAPGKGLEWVSAISGSGGGTYYADSVKGRFTISRDNSKNTLYLQMNSLRAEDTAVYYCAEPSHFDRPFDYRSQGTLVTVSS | 0.19 nM |
| PEP2-47-1 Fc (Fc fusion, not shown: a dimerising Fc or GST) EVQLLESGGGLVQPGGSLRLSCAASGYTFPMKDMGWVRQAPGKGLEWVSAISGSGGGTYYADSVKGRFTISRDNSKNTLYLQMNSLRAEDTAVYYCAEPSHFDRPFDYRSQGTLVTVSS | 0.11 nM |
| PEP2-2-1-1 Fc (Fc fusion, not shown: a dimerising Fc or GST) EVQLLESGGGLVQPGGSLRLSCAASGFTFRNHDMGWVRQAPGKGLEWVSAISGSGGSTYYADSVKGRFTISRDNSKNTLYLQMNSLRAEDTAVYYCAEPKPMDTEFDYRSPGTLVTVSS | 0.09 nM |
| PEP2-472-1 Fc (Fc fusion, not shown: a dimerising Fc or GST) EVQLLESGGGLVQPGGSLRLSCAASGYTFPMKDMGWVRQAPGKGLEWVSAISGSGGGTYYADSVKGRFTISRDNSKNTLYLQMNSLRAEDTAVYYCAEPKPMDTEFDYRSQGTLVTVSS | 0.09 nM |
| PEP2-42 Fc (Fc fusion, not shown: a dimerising Fc or GST) EVQLLESGGGLVQPGGSLRLSCAASGFTFDNVEMSWVRQAPGKGLEWVSSIGSKGEDTYYADSVKGRFTISRDNSKNTLYLQMNSLRAEDTAVYYCAQTVNVPEPAFAYWGQGTLVTVSS | 5.5 nM |
| PEP2-42-1 Fc (Fc fusion, not shown: a dimerising Fc or GST) EVQMLESGGGLVQPGGSLRLSCAASGFTFDNVEMSWVRQAPGKGLEWVSSIGTKGEYTYYADSVKGRFTISRDNSKNTLYLQMNSMRAEDTAVYYCAQTVNVPEPAFAYWGQGTLVTVLS | 0.12 nM |

Target: PEP2-4 dAb
Sequence (chain, as listed by the source): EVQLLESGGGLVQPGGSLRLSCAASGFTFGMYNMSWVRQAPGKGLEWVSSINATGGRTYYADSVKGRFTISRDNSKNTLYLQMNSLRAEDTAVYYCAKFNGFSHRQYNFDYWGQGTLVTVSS
Assay: immunohistochemistry on cervical cancer sections, 20 nM PEP2-4 with added free peptide; estimate between no inhibition at 10 uM and clear inhibition at 100 uM

| Binder | IC50 |
| --- | --- |
| GHNYTTRNILPGLNITC (modifications not checked) [E200 peptide] | 40000 to 50000 nM |
